Reference: the DeepSol protein solubility set

assay: soluble on expression in E. coli; label from the status in PepcDB or PDB records

Q: Which “soluble on expression in E. coli” value does the source give for “GPGSMEFSGSTLSVVEVEHTVRQLRPFPLQDIGTAEWKNQREAVERLNMCTHSNAVLKKDDTVKAFLIEHEKLPVLLHELLVMEVWRQRVLPLIKDQIVQHPAGIYMYVQYEMVLLNLFECIAFHEEVVVALDEDVLELIDYCWRQASRLFAEQNVNEVQSKPTARDVSNAANTVEEVLKSADRQMLHAIYQRAMASLSILWFIIDRLNQLPLAASNSVLVKNDLILGLTEVMLLQPWLRRSSEATQKFFNGEFKDIPRADVLLVCTPEAHTWFSLHKLLCDPECRRRYSYTQSKKELILRIRHFLNDTLVDQIPALASLQRALEELSFLQPPSGTEEKFKSTLTIEQVPRIMTLVEVERKGSWDDLASTLRAMLQDPSVRNEDAMRLSRIFDEMFSDQLK” here?
A: Its value is “not soluble”.

Q: Which “soluble on expression in E. coli” value does the source give for “SSEQAIIVSAINHSLAQFSCHLIDGVTGSGKTEVYLQSMEEVLANNQQVLVIVPEIGLTPQTLNRFEQRFNVPIALHHSGLNDKERLATWLSAQQGSAAIVIGTRSAVFTPLHRLGLIIIDEEHDSSLKQQDSFRYHCRDMAILRARQLNIPIVLGTATP” here?
A: The value was “not soluble”.

Q: For “MVRKLKTHEQKLLKKTDFMSWQVDQQGKQGDMLRKFYVKKREHYALYNTLAAKSREVADLIKNLSESDPFRSKCTEDMLTKFYAAGLVPTSDTLERIGKVTGASFARRRLPVVMRNIGMCESVKTASDLVEQGHVRIGTKLVTDPAFMVTRSSEDMITWTKASKIKKHVMDYNNTRDDFDLMD”, which “soluble on expression in E. coli” value is on record?
A: The value was “not soluble”.

Q: With “MIDLSTEFAGLRLKNPIVAASSGLTRNLKTIKDLEAAGVAAIVLKSLFEEQIEAEMSQMMSPMDYPEAADYINAYVQSNEISKHLDFLREVKREVAIPVIASINCFRSDSWVDFAKQFEEAGADALEINVMRLNTDLFFDANKAEQMYVDIISSLIKAIRIPVVVKLSKSFANIPSLVDKLRAAGAKGVVLFNRSYQPDIDIDKVQMVAGDVFTSAGEISDTIRH” as the sequence, how does the “soluble on expression in E. coli” value read?
A: The value was “not soluble”.

Q: Which “soluble on expression in E. coli” value does the source give for “MNINKKVTLQRIQTLTELHGAPGFEEEVKNYMTQQMAPYVDEFIENRMGGFFGVKKSKNPNAKRVMIAAHMDEIGFMITNITKNGMIQFTNLGGVANDIWQGQRLVIKNRNGDKIIGVVSNIPKHFRTGSEGAPEIKDLTLDIGAQNEDEVRERGIDIGDTIVPHTPFTQLSEHRYSAKAWDNRYGCVLAIEILELLKDIELDVDLYVGANVQEEVGLRGAKASAEMIDPDVAFVVDCSPANDVKGNQPLSGELGKGTLIRIKDGTMILKPVFRDYLLKLVEAHDIEHQYYMSPGGTDGGEIHKANIGIPTAVIGVCARYIHSTDSVFDIRDYFAARSLLSEAICNLDNNQIETLQYK” here?
A: The value was “not soluble”.

Q: Which “soluble on expression in E. coli” value does the source give for “MSFVQIRHISSQINRKTVSIVGSGPSGFYTAYHLLKKSPIPLNVTIWEKLPVPFGLSRYGVAPDHPEVKNCEETFTTCAEEFSSPTNQKHKFSFVGGITIGKEILLKELLDNQDAVILSYGCTGDRKLNIPGELGTKGVFSSREFVNWYNGHPDFAKDKRFTDFDWSKVSKVGIIGNGNVALDITRVLISNQIDEIWENTDISSLALNLLRRAPVKDVKLIARRDFVHSKFTNKELRELWELEKYGIRGRIDPKFFQKEMFDPSKYDRAFNRRVEMCSEYLKPFNERSKKNYKKAPPPSSGYDKFWELDYLKTPLKINRDDFGAINSLSLCNNRLNEDNSLQPLKDVNNIMTYKVDLLITSLGYAGVPMPEFSKLSIGFDKDHIANKQGRVLTSSGEIFPHLYASGWIRKGSQGVIASTMQDAFEVGDRVIQDLVVSGALSLENSIDLSNIKHTTWKDWERINKKELLRGKKEHKTRSKFLTFEELWNGVEGI” here?
A: Its value is “soluble”.

Q: For “MSLQRGAGQYFAGKRCFVTGAASGIGRATALRLAAQGAELYLTDRDRDGLAQTVCDARALGAQVPEHRVLDVSDYQDVAAFAADIHARHPSMDVVLNIAGVSAWGTVDQLTHDQWSRMVAINLMGPIHVIETLVPPMVAAGRGGHLVNVSSAAGLVGLPWHAAYSASKYGLRGLSEVLRFDLARHGIGVSVVVPGAVKTPLVNTVEIAGVDRDDPRVNRWVERFSGHAVTPEKAADKILAGVTRNRYLVYTSADIRALYAFKRYAWWPYTLVMRRVNVFFTRALRPGEGHHHHHH”, which “soluble on expression in E. coli” value is on record?
A: The value was “soluble”.

Q: For “MSLGSGVAEPEFPVHGDDRAAAFFDLDNTVMQGAAIFHFGRGLYKRKFFETRDLARFAWQQAWFRLAGFEDPEHMQDARDSALSIVKGHRVSELKSIGEEIYDEYMAERIWPGTRALAQAHLDAGQKVWLVTAAPVEIAQVIARRLGLTGALGTVAESIGGVYTGKLVGEPLHGPAKAEAVRALATAEALDLSRCAAYGDSHNDIPMLSLVGHPYAINPDSKLRKHARELEWRLRDYRTGRKAAKEGHHHHHH”, which “soluble on expression in E. coli” value is on record?
A: Its value is “soluble”.

Q: For “MPSENPIGKTMKSIDEQSLHNARRLFESGDIDRIEVGTTAGLQQIHRYLFGGLYDFAGQIREDNISKGGFRFANAMYLKEALVKIEQMPERTFEEIIAKYVEMNIAHPFLEGNGRSTRIWLDLVLKKNLKKVVNWQNVSKTLYLQAMERSPVNDLELRFLLKDNLTDDVDNREIIFKGIEQSYYYEGYEKG”, which “soluble on expression in E. coli” value is on record?
A: Its value is “soluble”.

Q: Which “soluble on expression in E. coli” value does the source give for “VKVSKECEKIDIILTDGVIILGKIKGQIDSKSLHEHEKKPFSQSGTMNPETSRLLVNLSRPKKEVLDPFVGTGSILIEARWLNYECIGSDLDKAMLQKTKINLNYFNYYCSLLFSSATNLPFRQITSIATDPPYGRSTKNKGAELTQLYEEFFSSASETLTKGGFLVFATDSRFNFIDKLKENSFIIKGLHYLYSHKSLTRAIYVVQKK” here?
A: Its value is “not soluble”.

Q: With “MGSDKIHHHHHHMLQPFLASADTFTQQHFANRHAILLKYPQSSAVTFAAAVWENSFHANALYFDVVGDVAWLPQLLEDLRQLADHHDRLQYSSYAAQSAVITQLQAKHFRAFRRTAMSDYRKVVATPEADVRSRSQLTSAQWHDVVQMSFANYVAAHADNPVTFNHATFEQQLAEAEDTQPSFLVENQQVQAYVFWFEDEPGALTSAWLGGQQFADIRRLLQTALFQVQARYSVVNGEFDDTDIHAWTVYQQLALPDPNPLISWQLLLDATRMP” as the sequence, how does the “soluble on expression in E. coli” value read?
A: Its value is “not soluble”.

Q: Which “soluble on expression in E. coli” value does the source give for “MIMAANEKEMRIKIIKDGPYRVTGGVPLLEQVIVTDDDGHTRDLIDIKEYPRREAYILCRCGSSENKPFCDGAHRKVGFDGSETASRTPYLEKAETFEGPDLKLTDVYELCDHSRFCQRSGGIRDLIQKSDDPEARQTAIEEAMICPSGRLVLWDKKTGKPFEKEFDPSIILVHDKQKGCEGPLWVRGGVPIESADGSMYEPRNRVTLCRCGKSENKPYCDGSHWMNSQQKLEFRKKWGLELEHHHHHH” here?
A: The value was “not soluble”.

Q: Which “soluble on expression in E. coli” value does the source give for “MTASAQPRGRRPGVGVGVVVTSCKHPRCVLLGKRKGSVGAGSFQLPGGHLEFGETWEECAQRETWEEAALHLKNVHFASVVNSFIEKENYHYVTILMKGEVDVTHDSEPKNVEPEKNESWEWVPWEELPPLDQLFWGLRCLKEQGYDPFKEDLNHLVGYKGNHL” here?
A: Its value is “soluble”.

Q: Which “soluble on expression in E. coli” value does the source give for “MTIYFKNGFYDDTLGGIPEGAVAVRAEEYAALLAGQAQGGQIAADSDGRPVLTPPRPSDYHEWDGKKWKISKAAAAARFAKQKTALAFRLAEKADELKNSLLAGYPQVEIDSFYRQEKEALARQADNNAPTPMLAQIAAARGVELDVLIEKVIEKSARLAVAAGAIIGKRQQLEDKLNTIETAPGLDALEKEIEEWTLNIG” here?
A: The value was “not soluble”.

Q: For “MKITVIGAGNVGATTAFRLAEKQLARELVLLDVVEGIPQGKALDMYESGPVGLFDTKVTGSNDYADTANSDIVVITAGLPRKPGMTREDLLSMNAGIVREVTGRIMEHSKNPIIVVVSNPLDIMTHVAWQKSGLPKERVIGMAGVLDSARFRSFIAMELGVSMQDVTACVLGGHGDAMVPVVKYTTVAGIPVADLISAERIAELVERTRTGGAEIVNHLKQGSAFYSPATSVVEMVESIVLDRKRVLTCAVSLDGQYGIDGTFVGVPVKLGKNGVEHIYEIKLDQSDLDLLQKSAKIVDENCKMLDASQG”, which “soluble on expression in E. coli” value is on record?
A: Its value is “soluble”.

Q: Which “soluble on expression in E. coli” value does the source give for “MKDYRYALPAMMSVRKGESRYFNRGDQHLMNEILARVRAEGKIRLRDIDKKNKESLGNWWNTGPGRRAFEQLYMQGDLMICERNGMEKVYDLTERCLPENIDLSLPTLYEYAQYLFNNTLRAHGAFTWKQLVHLKKNDLKETMRVVLKEQIDAGVVSAIKLADGQNLYVDVTAIEQQLDTDFGLKILSPFDNSLIHRDRLTSLFEFDYRIECYLPAAKRVFGYFCLPILYQNELVGRIDCKAHRTVKELEVISLHLEKTVKDKEHFFFELDQELKRFAAFNQCSTVNDKVVKLIRSKLLEHHHHHH” here?
A: The value was “not soluble”.

Q: With “MGSDKIHHHHHHMSTFHPHPPTQNRLLAALPPIELDDLAPHLELVHLLPGDVLCKAGKQLSYAYFPTSSVISIHCLLENGTLSELTSVGREGMLGVSLFMGGEDTQSSATVQSAGYGYRLNAAFLLQEFNEGGMLQRLLLRYSHALVTEAAQNVICSRYHTAQQRLCRWLMSTWDRLGSQELVLTQESIASILGIRRESVTAIARRLQEAGTICYRRGRIMVNDQAALQRESCECYDIIKKEFDGVFDDVRVCEKARQNSINAANAL” as the sequence, how does the “soluble on expression in E. coli” value read?
A: Its value is “not soluble”.

Q: With “RDLAVAILMDCSRSTEASVGERTVIDTAREALAALAAGIDVAGDRQAIWGFSSLRRDRVFLHLCKRFDEPMGPAVTARIGGLRPGHYTRLGAAIRHASARLNEEAASRKLLLVLTDGKPNDLDHYEGVHGIEDSRMAVREARALSQAVHGVVIDADGQDWFARIFGRAGFTLLPEPARLARALPDLYRSLTQEI” as the sequence, how does the “soluble on expression in E. coli” value read?
A: The value was “not soluble”.

Q: Which “soluble on expression in E. coli” value does the source give for “MSLYVSKLFTSQQWRELKLISYVTENADAIGVKDKELSKALNISMLTLQTCLTNMQFMKEVGGITYKNGYITIWYHQHCGLQEVYQKALRHSQSFKLLETLFFRDFNSLEELAEELFVSLSTLKRLIKKTNAYLMHTFGITILTSPVQVSGDEHQIRLFYLKYFSEAYKISEWPFGEILNLKNCERLLSLMIKEVDVRVNFTLFQHLKILSSVNLIRYYKGHSAVYDNKKTSQRFSQLIQSSLEFQDLSRLFHLKFGLYLDETTIAEMFSNHVNDQLEIGYAFDSIKQDSPTGCRKVTNWVHLLDELEIRLNLSVTNKYEVAVILHNTTVLKEEDITANYLFFDYKKSYLNFYKQEHPHLYKAFVAGVEKLMRSEKEPISTELTNQLIYAFFITWENSFLKVNQKDEKIRLLVIERSFNSVGNFLKKYVGEFFSITNFNELDALTIDLEEIEKQYDVIVTDVMVGKSEELEIFFFHKMIPEAIIDKLNAFLTSALQQEGHHHHHH” here?
A: The value was “soluble”.

Q: Which “soluble on expression in E. coli” value does the source give for “MDKELNPSIGDYTGRTVDTLQNAVYIRLMTPLGSWWADKTLGSLLHLLQREKDLQRVSLLAEQYADEALQPIVKSGRADKITVRAEQPHDGRLILHIRMDTAAGGFDYRHEVPVI” here?
A: The value was “not soluble”.

Q: Which “soluble on expression in E. coli” value does the source give for “SLLVENLKQLQERVAVSDGRAKADLVIKNGRIINVFSGEIMDGDIAIKNGYIAGIGNFPDAEKIIDAAGAFIAPGFIDAHVHVESAMVTPAEFARVLLPNGVTTIVTDPHEIANVAGEKGIEFMLEDAKGVPIDMFVMLPSSVPATEGEHNGETLHAEKLHPLYRHEKVIGLAEVMDFPSVAKGSSDILTKIIDAKKEGGRIDGHGAGLTSADLNNYLAVGIRTDHESTTAKEATDRLRAGMFVMLREGTVGRDLLQTIPAVSEKNSHRFCFCTDDKLINDLITEGSINFNIRLAIKNGIDPITAIQMATINAANCHNLPYLGAVAAGYQADIVFLTDIETVEISKVLKNGEVVVDNGVRHEAAFKQQAAVPFVSPPINHHVSLQDLALPLTKETCYVIGMQPNSLFTEKRIEQVAIQDGKFVPTVENDLLKMAVVERHHDTGCVGLGIVKGFGLTEGAIATTVAHDSHNIVAVGISDEAMKAAIDHITQTGGGIAVVNGAGQVLHDLALPIAGLLSDKSYEEVENDLAGLLNAFKQISTADGFDPFLTLSFLTLPVIPELKLTDQGLFDFATFQIISNEVN” here?
A: The value was “soluble”.
